According to the supplement of paper PMC7877785:
± gives the uncertainty stated by the source.

Experiment: self-splicing fitness, log relative to wild type (ln ratio); higher = more splicing; Tetrahymena group I intron in knt gene, E. coli kanamycin selection, DiMSum; sequences stand for … in CUCUCU…GGAGGGAAAAGUUAUCAGGCAUGCACCUGGUAGCUAGUCUUUAAACCAAUAGAUUGCAUCGGUUUAAAAGGCAAGACCGUCAAAUUGCGGGAAAGGGGUCAACAGCCGUUCAGUACCAAGUCUCAGGGGAAACUUUGAGAUGGCCUUGCAAAGGGUAUGGUAAUAAGCUGACGGACAUGGUCCUAACCACGCAGCCAAGUCCUAAGUCAACAGAUCUUCUGUUGAUAUGGAUGCAGUUCACAGACUAAAUGUCGGUCGGGGAAGAUGUAUUCUUCUCAUAAGAUAUAGUCGGACCUCUCCUUAAUGGGAGCUAGCGGAUGAAGUGAUGCAACACUGGAGCCGCUGGGAACUAAUUUGUAUGCGAAAGUAUAUUGAUUAGUUUUGGAGUACUCGUGGUCG
How it was run: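 The eight P1ex-region nucleotides of an intron in the knt kanamycin-resistance gene on pET-22b(+) were all randomised and the library put into E. coli BL21(DE3). Six replicate transformations were grown overnight at 37°C or 30°C on LB agar with or without 25 μg/mL kanamycin, together with 100 μg/mL carbenicillin, 50 μM IPTG and 0.2% rhamnose. Colonies were pooled and amplicon-sequenced on an Illumina HiSeq 2500. Fitness from DiMSum is the error-weighted combination of wild-type-normalised replicate fold changes, kanamycin over none.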

Row | Sequence | self-splicing fitness (ln) (30 °C) | self-splicing fitness (ln) (37 °C)
1 | AGUCAGCAAUAUUACGUGAU | -1.52 ± 0.077 | -0.719 ± 0.1
2 | AGUCAGCAAUAUUACGUUAC | -2.88 ± 0.16 | -2.36 ± 0.21
3 | AGUGAGCAAUAUUACGACGC | -1.01 ± 0.2 | -0.737 ± 0.29
4 | AGUGAGCAAUAUUACGAGCU | -2.44 ± 0.23 | -1.07 ± 0.5
5 | AGUGAGCAAUAUUACGCACU | -2.97 ± 0.44 | -2.24 ± 0.38
6 | AGUGAGCAAUAUUACGCAUA | -4.2 ± 0.43 | -2.56 ± 0.29
7 | AGUGAGCAAUAUUACGCGCA | -2.29 ± 0.2 | -2.38 ± 0.2
8 | AGUGAGCAAUAUUACGCGGU | -3.93 ± 0.25 | -3.01 ± 0.23
9 | AGUGAGCAAUAUUACGCUAA |  | -2.09 ± 0.26
10 | AGUGAGCAAUAUUACGGAAU | -3.11 ± 0.18 | -2.16 ± 0.13
11 | AGUGAGCAAUAUUACGGACA | -1.09 ± 0.2 | -1.5 ± 0.27
12 | AGUGAGCAAUAUUACGUAAC | -4.68 ± 0.23 | -1.67 ± 0.14
13 | AGUGAGCAAUAUUACGUCGC | -2.66 ± 0.41 | 
14 | AGUGAGCAAUAUUACGUGCC | -2.42 ± 0.49 | -1.3 ± 0.38
15 | AGUGAGCAAUAUUACGUUUG | -3.7 ± 0.23 | -2.8 ± 0.24
16 | AGUUAGCAAUAUUACGAAAA | -2.79 ± 0.49 | -1.5 ± 0.32
17 | AGUUAGCAAUAUUACGAACA | -0.687 ± 0.12 | 0.168 ± 0.17
18 | AGUUAGCAAUAUUACGACGG | -0.829 ± 0.15 | -0.189 ± 0.18
19 | AGUUAGCAAUAUUACGAGGG | -4.11 ± 0.38 | -2.06 ± 0.33
20 | AGUUAGCAAUAUUACGCACG | -1.42 ± 0.19 | 0.196 ± 0.22
21 | AGUUAGCAAUAUUACGCCUU | -0.974 ± 0.23 | -0.383 ± 0.33
22 | AGUUAGCAAUAUUACGCGGA | -0.823 ± 0.29 | -0.581 ± 0.14
23 | AGUUAGCAAUAUUACGCUCA | -1.23 ± 0.16 | -0.21 ± 0.15
24 | AGUUAGCAAUAUUACGCUUC | -2.8 ± 0.18 | 
25 | AGUUAGCAAUAUUACGGAAG | -3.57 ± 0.3 | -3.07 ± 0.43

Row | Sequence | self-splicing fitness (ln) (30 °C) | self-splicing fitness (ln) (37 °C)
26 | AGUUAGCAAUAUUACGGACU | -3.24 ± 0.28 | -1.03 ± 0.25
27 | AGUUAGCAAUAUUACGGAUA | -2 ± 0.31 | -1.42 ± 0.25
28 | AGUUAGCAAUAUUACGGAUG | -0.996 ± 0.11 | -0.801 ± 0.15
29 | AGUUAGCAAUAUUACGGCGC | -0.53 ± 0.22 | 0.14 ± 0.33
30 | AGUUAGCAAUAUUACGUAAU | -2.56 ± 0.14 | -1.47 ± 0.14
31 | AGUUAGCAAUAUUACGUCCG | -1.32 ± 0.15 | -0.0933 ± 0.19
32 | AGUUAGCAAUAUUACGUCGG | -3.45 ± 0.23 | -1.67 ± 0.16
33 | AGUUAGCAAUAUUACGUCUC | -3.73 ± 0.37 | -2.44 ± 0.36
34 | AGUUAGCAAUAUUACGUGGA | -1.87 ± 0.13 | -1.58 ± 0.12
35 | AGUUAGCAAUAUUACGUUCA | -1.28 ± 0.15 | -0.155 ± 0.16
36 | AUAAAGCAAUAUUACGAAAC | -2.47 ± 0.19 | -1.18 ± 0.32
37 | AUAAAGCAAUAUUACGAAAU | -0.905 ± 0.067 | -0.451 ± 0.098
38 | AUAAAGCAAUAUUACGAACU | 0.222 ± 0.095 | 0.227 ± 0.11
39 | AUAAAGCAAUAUUACGAAGU | -1.82 ± 0.088 | -1.01 ± 0.098
40 | AUAAAGCAAUAUUACGACAG | -1.2 ± 0.1 | -1.15 ± 0.12
41 | AUAAAGCAAUAUUACGACCA | -0.122 ± 0.09 | 0.00323 ± 0.12
42 | AUAAAGCAAUAUUACGCAUA | -1.34 ± 0.088 | -0.0324 ± 0.11
43 | AUAAAGCAAUAUUACGCAUG | -0.888 ± 0.073 | -0.405 ± 0.093
44 | AUAAAGCAAUAUUACGCCAC | -1.94 ± 0.38 | 
45 | AUAAAGCAAUAUUACGCCGU | 0.151 ± 0.11 | -0.694 ± 0.12
46 | AUAAAGCAAUAUUACGCCUG | 0.243 ± 0.077 | -0.132 ± 0.09
47 | AUAAAGCAAUAUUACGCGCC | -0.37 ± 0.13 | -0.473 ± 0.2
48 | AUAAAGCAAUAUUACGCUCC | -0.366 ± 0.16 | -0.365 ± 0.24
49 | AUAAAGCAAUAUUACGCUUA | -1.27 ± 0.1 | 0.137 ± 0.12
50 | AUAAAGCAAUAUUACGGGCU | -0.992 ± 0.08 | -0.621 ± 0.1

Row | Sequence | self-splicing fitness (ln) (30 °C) | self-splicing fitness (ln) (37 °C)
51 | AUAAAGCAAUAUUACGUAUA | -1.91 ± 0.099 | -0.351 ± 0.12
52 | AUAAAGCAAUAUUACGUAUC | -3.77 ± 0.18 | -2.02 ± 0.19
53 | AUAAAGCAAUAUUACGUCAA | -1.54 ± 0.088 | -0.873 ± 0.094
54 | AUAAAGCAAUAUUACGUGGA | -3.9 ± 0.17 | -1.38 ± 0.1
55 | AUAAAGCAAUAUUACGUGGG | -2.92 ± 0.095 | -3.02 ± 0.15
56 | AUAAAGCAAUAUUACGUGUC | -3.44 ± 0.14 | -3.4 ± 0.12
57 | AUAAAGCAAUAUUACGUUAU | -0.793 ± 0.064 | -0.4 ± 0.11
58 | AUAAAGCAAUAUUACGUUGC | -3.81 ± 0.19 | -3.29 ± 0.29
59 | AUAAAGCAAUAUUACGUUUG | -2.84 ± 0.11 | -1.79 ± 0.12
60 | AUACAGCAAUAUUACGAAAA | -2.58 ± 0.26 | -1.4 ± 0.18
61 | AUACAGCAAUAUUACGAAAC |  | -3.1 ± 0.24
62 | AUACAGCAAUAUUACGAAGA | -3.16 ± 0.2 | -2.04 ± 0.17
63 | AUACAGCAAUAUUACGACAC | -0.517 ± 0.11 | -1.31 ± 0.13
64 | AUACAGCAAUAUUACGACAG | -2.15 ± 0.14 | -2.03 ± 0.15
65 | AUACAGCAAUAUUACGAGCC | -2.64 ± 0.27 | 
66 | AUACAGCAAUAUUACGAGGA | -3.26 ± 0.19 | -0.911 ± 0.12
67 | AUACAGCAAUAUUACGCACG | -2.13 ± 0.12 | -0.772 ± 0.15
68 | AUACAGCAAUAUUACGCCCC | -1.47 ± 0.25 | 0.0702 ± 0.23
69 | AUACAGCAAUAUUACGCGAC | -1.87 ± 0.14 | -1.97 ± 0.22
70 | AUACAGCAAUAUUACGCGAG | -2.35 ± 0.097 | -0.829 ± 0.1
71 | AUACAGCAAUAUUACGCGGU | -3.44 ± 0.21 | -2.04 ± 0.18
72 | AUACAGCAAUAUUACGCUUA | -1.67 ± 0.12 | -0.741 ± 0.099
73 | AUACAGCAAUAUUACGGAGG | -3.46 ± 0.21 | -1.8 ± 0.19
74 | AUACAGCAAUAUUACGGAUU | -1.82 ± 0.079 | -1.24 ± 0.088
75 | AUACAGCAAUAUUACGGCUA | 0.0244 ± 0.072 | 0.138 ± 0.082

Row | Sequence | self-splicing fitness (ln) (30 °C) | self-splicing fitness (ln) (37 °C)
76 | AUACAGCAAUAUUACGGCUU | 0.0959 ± 0.047 | 0.115 ± 0.057
77 | AUACAGCAAUAUUACGGUAA | -0.731 ± 0.094 | -0.502 ± 0.093
78 | AUACAGCAAUAUUACGGUCA | -0.743 ± 0.09 | -0.0276 ± 0.099
79 | AUACAGCAAUAUUACGGUCC | -1.18 ± 0.097 | 0.135 ± 0.11
80 | AUACAGCAAUAUUACGGUCG | -1.08 ± 0.068 | -0.545 ± 0.094
81 | AUACAGCAAUAUUACGUAAA | -1.87 ± 0.091 | -1.41 ± 0.087
82 | AUACAGCAAUAUUACGUAAG | -0.561 ± 0.05 | -0.0861 ± 0.068
83 | AUACAGCAAUAUUACGUACG | -0.772 ± 0.1 | 0.0144 ± 0.12
84 | AUACAGCAAUAUUACGUAUA | -3.94 ± 0.26 | -2.49 ± 0.16
85 | AUACAGCAAUAUUACGUCGC | -2.42 ± 0.13 | -3.06 ± 0.26
86 | AUACAGCAAUAUUACGUUUC | -3.38 ± 0.19 | -1.49 ± 0.2
87 | AUACAGCAAUAUUACGUUUG | -2.93 ± 0.11 | -2.35 ± 0.14
88 | AUAGAGCAAUAUUACGAAGG |  | -1.24 ± 0.39
89 | AUAGAGCAAUAUUACGAGUU | -2.25 ± 0.13 | -1.33 ± 0.15
90 | AUAGAGCAAUAUUACGAUCG | -1.08 ± 0.14 | -1.4 ± 0.27
91 | AUAGAGCAAUAUUACGAUGA | -2.14 ± 0.21 | -1.75 ± 0.29
92 | AUAGAGCAAUAUUACGCAAU | -0.971 ± 0.14 | 0.283 ± 0.2
93 | AUAGAGCAAUAUUACGCACA | -0.178 ± 0.09 | -0.032 ± 0.11
94 | AUAGAGCAAUAUUACGCCAG | -2.27 ± 0.21 | -1.14 ± 0.27
95 | AUAGAGCAAUAUUACGCGAC | -2.44 ± 0.18 | -1.3 ± 0.17
96 | AUAGAGCAAUAUUACGCGAG | -1.54 ± 0.11 | -1.26 ± 0.14
97 | AUAGAGCAAUAUUACGCUUG | -0.549 ± 0.12 | -0.411 ± 0.13
